Several values for one entry are separate records, joined by “and”; a condition that tells them apart may be missing. Equal values may be shown once. Read-outs that look alike come from different tables or passages of the source.

Data set [1] concerns the target T1, She2p;She3p;Myo4p-C (Saccharomyces cerevisiae;Saccharomyces …, UniProt P36068;P38272;P32492 1-246;1-425;978-1471, ||). Nature of the data set: EMSA. For orientation: In EMSA bound probe runs differently from free probe, usually more slowly.
The next data set has as its target T2, She3p;Myo4p-C (Saccharomyces cerevisiae;Saccharomyces …, UniProt P38272;P32492 1-425;978-1471, |).
T2 sequence 1: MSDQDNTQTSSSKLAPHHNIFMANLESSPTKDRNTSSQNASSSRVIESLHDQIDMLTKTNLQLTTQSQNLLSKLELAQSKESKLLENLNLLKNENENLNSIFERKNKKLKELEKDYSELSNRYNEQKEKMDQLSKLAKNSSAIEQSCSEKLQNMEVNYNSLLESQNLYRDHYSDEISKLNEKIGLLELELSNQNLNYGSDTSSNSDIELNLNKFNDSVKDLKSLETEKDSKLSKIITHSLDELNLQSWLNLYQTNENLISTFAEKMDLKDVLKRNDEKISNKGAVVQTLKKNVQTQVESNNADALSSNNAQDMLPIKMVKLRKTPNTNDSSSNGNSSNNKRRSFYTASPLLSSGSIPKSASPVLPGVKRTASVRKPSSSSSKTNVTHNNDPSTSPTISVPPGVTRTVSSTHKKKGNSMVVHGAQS
T2 sequence 2: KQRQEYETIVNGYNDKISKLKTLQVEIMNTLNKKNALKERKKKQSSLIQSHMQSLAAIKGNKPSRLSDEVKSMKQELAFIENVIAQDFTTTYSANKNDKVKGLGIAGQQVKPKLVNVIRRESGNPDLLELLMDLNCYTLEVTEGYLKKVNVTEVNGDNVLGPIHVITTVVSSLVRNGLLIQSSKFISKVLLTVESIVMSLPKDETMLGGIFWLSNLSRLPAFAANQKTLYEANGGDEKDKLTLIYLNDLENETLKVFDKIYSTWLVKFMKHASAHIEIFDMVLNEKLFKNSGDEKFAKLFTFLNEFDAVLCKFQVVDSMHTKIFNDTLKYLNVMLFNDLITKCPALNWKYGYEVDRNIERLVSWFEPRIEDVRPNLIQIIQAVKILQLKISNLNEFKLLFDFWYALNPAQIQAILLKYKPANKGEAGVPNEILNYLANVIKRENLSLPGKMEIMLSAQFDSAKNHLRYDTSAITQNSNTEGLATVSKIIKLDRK
The data set is described as follows: EMSA.

Data set [2] concerns the target T3, She2p;She3p;Myo4p full-length (Saccharomyces cerevisiae;Saccharomyces …, UniProt P36068;P38272;P32492 1-246;1-425;1-1471, ||). Nature of the data set: single-molecule TIRFM.
In data set [3] the target is T4, Myo4p-C (amino acids 978–1,471) (S. cerevisiae, UniProt P32492 978-1471).
T4 sequence: T2 sequence 2
The data set is described as follows: ITC. In general terms: ITC needs no label: the signal is the heat of the interaction.

The data set “cross-linking” concerns the molecule itself. Nature of the data set: cross-linking.
Data set [4] deals with T4, Myo4p-C (amino acids 978–1,471). The data set is described as follows: quantitative mass spectrometry with heavy isotope-labeled peptides.
The target is the same in data set [5]. The data set is described as follows: static light scattering coupled to SEC.
Data set [6] shares this target. Nature of the data set: quantitative mass spectrometry with heavy isotope-labeled peptides. This is another data set of the same source.
The target in data set [7] is T1, She2p;She3p;Myo4p-C. Nature of the data set: SLS.
The target of the next data set is She2p (Saccharomyces cerevisiae, UniProt P36068 1-246). The data set is described as follows: SLS.
Data set [8] addresses T3, She2p;She3p;Myo4p full-length. The data set is described as follows: single-molecule TIRFM. This is another data set of the same source.
The target in data set [9] is T1, She2p;She3p;Myo4p-C. Nature of the data set: SEC. In general terms: SEC sorts molecules by how far they enter the pores of the column.

Chain of She2p (P36068 whole entry): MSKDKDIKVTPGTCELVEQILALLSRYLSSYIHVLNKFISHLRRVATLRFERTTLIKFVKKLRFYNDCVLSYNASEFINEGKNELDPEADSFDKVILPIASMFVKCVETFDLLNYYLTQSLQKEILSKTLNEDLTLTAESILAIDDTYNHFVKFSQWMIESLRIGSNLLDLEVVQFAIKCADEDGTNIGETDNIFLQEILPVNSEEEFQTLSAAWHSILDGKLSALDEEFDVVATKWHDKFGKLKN
T1 sequence (P36068 whole entry, one chain of several): as the sequence (P36068 whole entry) above
T3 sequence (P36068 whole entry, the tested form may be a part, one chain of several): as the sequence (P36068 whole entry) above

B1: ASH1-E3-77 (structured_RNA)
RNA: GGGAGAGAAUUGAUACAUGGAUAACUGAAUCUCUUUCAACUAAUAAGAGACAUUAUCACGAAACAAUUGUACAUUUCUCU
For the molecule B1, the binding result with She2p;She3p;Myo4p-C [1] and with She3p;Myo4p-C was “binds” each time.

B2: IST2 + 22-nt 3' overhang (mixed)
RNA: GGGAUGCUGGAGUGAAGAAUGUCACGAACAAUUCUAAGACAACCGAAUCCUCUUCCUCUUCAUCGGCGGCAAAGGAAAAACCAAAA
DNA: TTTTGGTTTTTCCTTTGCCGCC
Regarding B2, in data set [2], the binding result is “binds”.

B3: She3p, full-length (natural protein)
chain: T2 sequence 1
By stoichiometry N is commonly meant the number of molecules, sites or subunits per partner or assembly. Consider B3, for which the “stoichiometry N” value was 1.93 She3p:Myo4p in data set [3]; 2 in the data set “cross-linking”; 2.56 She3p:Myo4p-C in data set [4]; 2 She3p/Myo4p-C in data set [5]; 2.12 She3p:Myo4p-C and 2.23 She3p:Myo4p-C in data set [6].

B4: ASH1-E3-77-tRNA (structured_RNA)
RNA: GGCUACGUAGCUCAGUUGGUUAGAGCAGCGGCCGAGAGAAUUGAUACAUGGAUAACUGAAUCUCUUUCAACUAAUAAGAGACAUUAUCACGAAACAAUUGUACAUUUCUCUUGGCCGCGGGUCACAGGUUCGAAUCCCGUCGUAGCCACCA
For B4, the binding result with She2p;She3p;Myo4p-C [7] and with She2p was “binds” in each case.

B5: ASH1-E3-77 + 3' overhang (mixed)
RNA: GGGAGAGAAUUGAUACAUGGAUAACUGAAUCUCUUUCAACUAAUAAGAGACAUUAUCACGAAACAAUUGUACAUUUCUCUCCUUGUCUGUGCUAAAUAAACUAC
DNA: GTAGTTTATTTAGCACAGACAAGG
On to B5, for which, in [8], the binding result is listed as “binds”.

B6: IST2-tRNA (structured_RNA)
RNA: GGCUACGUAGCUCAGUUGGUUAGAGCAGCGGCCGGAUGCUGGAGUGAAGAAUGUCACGAACAAUUCUAAGACAACCGAAUCCUCUUCCUCUUCAUCUGGCCGCGGGUCACAGGUUCGAAUCCCGUCGUAGCCACCA
With B6, the binding result with She2p was “binds”.

B7: ASH1-E3-51 (structured_RNA)
RNA: AUGGAUAACUGAAUCUCUUUCAACUAAUAAGAGACAUUAUCACGAAACAAU
In the case of B7, the binding result with She2p;She3p;Myo4p-C [9] and with She2p was “binds” throughout.

B8: She3p N-terminal fragment (amino acids 1–234) (domain or fragment)
chain: MSDQDNTQTSSSKLAPHHNIFMANLESSPTKDRNTSSQNASSSRVIESLHDQIDMLTKTNLQLTTQSQNLLSKLELAQSKESKLLENLNLLKNENENLNSIFERKNKKLKELEKDYSELSNRYNEQKEKMDQLSKLAKNSSAIEQSCSEKLQNMEVNYNSLLESQNLYRDHYSDEISKLNEKIGLLELELSNQNLNYGSDTSSNSDIELNLNKFNDSVKDLKSLETEKDSKLSK
Consider B8, for which, in the data set “cross-linking”, the binding result was “binds”.

The values are drawn from article PMC3871432 (The Journal of Cell Biology, 2013).
